A value given as a limit tells only on which side of the number the result lay.

The test concerns the target SARS CoV-1 RBD (SARS-CoV-1). As to the kind of experiment: ELISA. (ELISA stands for enzyme-linked immunosorbent assay.)

In turn, REGN10933 (Casirivimab) (antibody) came in with an EC50 of 14 nM.

B1: REGN-10987 (Imdevimab) (antibody, V domains shown)
VH: QVQLVESGGGVVQPGRSLRLSCAASGFTFSNYAMYWVRQAPGKGLEWVAVISYDGSNKYYADSVKGRFTISRDNSKNTLYLQMNSLRTEDTAVYYCASGSDYGDYLLVYWGQGTLVTVSS
VL: QSALTQPASVSGSPGQSITISCTGTSSDVGGYNYVSWYQQHPGKAPKLMIYDVSKRPSGVSNRFSGSKSGNTASLTISGLQSEDEADYYCNSLTSISTWVFGGGTKLTVL
Consider B1, for which the concentration giving a half-maximal response (EC50) was > 100 nM.

The term EC50 denotes the concentration that produces a half-maximal response.

Source of the values: PMC8920075.
